Measurements as given in paper PMC9482650, “Quantitative fragmentomics allow affinity mapping of interactomes” (Nature Communications, 2022).

T1: ARHGEF11, O15085
T1 sequence (O15085 42-136, limits assumed, looked up): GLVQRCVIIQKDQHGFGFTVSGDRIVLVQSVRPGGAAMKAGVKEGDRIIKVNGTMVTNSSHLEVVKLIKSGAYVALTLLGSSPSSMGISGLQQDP

T2: MPP6, Q9NZW5
T2 sequence (Q9NZW5 125-219, limits assumed, looked up): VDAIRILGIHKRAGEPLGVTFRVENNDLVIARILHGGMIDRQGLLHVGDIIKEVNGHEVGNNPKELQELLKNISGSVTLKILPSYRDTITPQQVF

T3: PCLO, Q9Y6V0
T3 sequence (Q9Y6V0 4491-4600, limits assumed, looked up): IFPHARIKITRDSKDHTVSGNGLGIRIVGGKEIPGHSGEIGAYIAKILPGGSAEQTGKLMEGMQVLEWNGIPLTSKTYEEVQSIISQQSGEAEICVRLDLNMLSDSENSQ

T4: MPP7, Q5T2T1
T4 sequence (Q5T2T1 134-230, limits assumed, looked up): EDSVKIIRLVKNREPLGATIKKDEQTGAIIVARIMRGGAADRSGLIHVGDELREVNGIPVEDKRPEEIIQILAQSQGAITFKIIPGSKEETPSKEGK

T5: GRIP1_5, Q9Y3R0
T5 sequence (Q9Y3R0 568-668, limits assumed, looked up): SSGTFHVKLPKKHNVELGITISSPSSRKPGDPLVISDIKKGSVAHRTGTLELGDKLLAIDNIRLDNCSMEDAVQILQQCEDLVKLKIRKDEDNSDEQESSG

T6: GRIP1_7, Q9Y3R0
T6 sequence (Q9Y3R0 999-1096, limits assumed, looked up): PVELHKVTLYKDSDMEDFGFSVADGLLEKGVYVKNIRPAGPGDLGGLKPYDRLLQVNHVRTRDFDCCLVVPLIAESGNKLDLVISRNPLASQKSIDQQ

T7: PDZRN3_1, Q9UPQ7
T7 sequence (Q9UPQ7 244-349, limits assumed, looked up): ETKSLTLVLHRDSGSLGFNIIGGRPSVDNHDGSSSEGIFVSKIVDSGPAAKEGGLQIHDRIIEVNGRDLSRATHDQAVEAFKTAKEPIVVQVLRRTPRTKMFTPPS

T8: PTPN13_1, Q12923
T8 sequence (Q12923 1088-1188, limits assumed, looked up): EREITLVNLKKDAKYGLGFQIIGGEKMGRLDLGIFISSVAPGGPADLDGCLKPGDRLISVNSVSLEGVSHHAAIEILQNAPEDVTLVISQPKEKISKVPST

T9: LIN7A, O14910
T9 sequence (O14910 103-200, limits assumed, looked up): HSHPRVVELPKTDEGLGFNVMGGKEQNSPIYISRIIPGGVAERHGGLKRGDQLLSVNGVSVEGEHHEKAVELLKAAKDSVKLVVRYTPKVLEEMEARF

T10: SYNJ2BP, P57105
T10 sequence (P57105 8-110, limits assumed, looked up): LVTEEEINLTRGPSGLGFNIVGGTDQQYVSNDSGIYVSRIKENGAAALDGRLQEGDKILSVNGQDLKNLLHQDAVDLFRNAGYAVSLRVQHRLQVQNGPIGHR

B1: LRRC4, Q9HBW1 (peptide)
chain: TKDKVQETQI
B2: FAM167B, Q9BTA0 (peptide)
chain: NISARRFTLC
B3: CACNA1D, Q01668 (peptide)
chain: ADEMICITTL

Biological target: T1, ARHGEF11, O15085
Assay: holdup assay
Set-up: key: below the threshold = too weak to quantify, mostly under pKd 3.1 to 4
Conditions: plain residues with an end cap or a label only (N-terminal biotin on a linker: ado-ado)

pKd	Binder
3.73	B1
3.86	B2
5.77	B3

Biological target: T2, MPP6, Q9NZW5
Assay: holdup assay
Set-up: key: below the threshold = too weak to quantify, mostly under pKd 3.1 to 4
Conditions: plain residues with an end cap or a label only (N-terminal biotin on a linker: ado-ado)

pKd	Binder
3.89	B1
below the threshold	B2
below the threshold	B3

Biological target: MAGI1_2, Q96QZ7
Assay: holdup assay
Set-up: key: below the threshold = too weak to quantify, mostly under pKd 3.1 to 4
Conditions: plain residues with an end cap or a label only (N-terminal biotin on a linker: ado-ado)

Chain of MAGI1_2, Q96QZ7 (Q96QZ7 456-580): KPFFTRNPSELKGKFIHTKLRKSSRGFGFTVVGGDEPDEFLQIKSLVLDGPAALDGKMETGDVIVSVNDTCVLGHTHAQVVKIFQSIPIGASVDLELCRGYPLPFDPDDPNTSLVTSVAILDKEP

pKd	Binder
below the threshold	B1
5.12	B2
below the threshold	B3

Biological target: GRASP, Q7Z6J2
Assay: holdup assay
Set-up: key: below the threshold = too weak to quantify, mostly under pKd 3.1 to 4
Conditions: plain residues with an end cap or a label only (N-terminal biotin on a linker: ado-ado)

Chain of GRASP, Q7Z6J2 (Q7Z6J2 96-193): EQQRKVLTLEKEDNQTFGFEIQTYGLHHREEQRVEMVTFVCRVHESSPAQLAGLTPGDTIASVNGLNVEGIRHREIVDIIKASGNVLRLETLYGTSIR

pKd	Binder
below the threshold	B1
4.36	B2
5.41	B3

Biological target: GRIP2_6, Q9C0E4
Assay: holdup assay
Set-up: key: below the threshold = too weak to quantify, mostly under pKd 3.1 to 4
Conditions: plain residues with an end cap or a label only (N-terminal biotin on a linker: ado-ado)

Chain of GRIP2_6, Q9C0E4 (Q9C0E4 648-740): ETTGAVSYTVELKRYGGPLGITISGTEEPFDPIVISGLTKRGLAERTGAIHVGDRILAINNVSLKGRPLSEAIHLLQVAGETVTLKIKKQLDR

pKd	Binder
below the threshold	B1
3.57	B2
below the threshold	B3

Biological target: NHERF4_2, Q86UT5
Assay: holdup assay
Set-up: key: below the threshold = too weak to quantify, mostly under pKd 3.1 to 4
Conditions: plain residues with an end cap or a label only (N-terminal biotin on a linker: ado-ado)

Chain of NHERF4_2, Q86UT5 (Q86UT5 220-308): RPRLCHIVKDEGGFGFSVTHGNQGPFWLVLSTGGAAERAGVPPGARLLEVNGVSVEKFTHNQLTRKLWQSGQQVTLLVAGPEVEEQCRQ

pKd	Binder
below the threshold	B1
below the threshold	B2
below the threshold	B3

Biological target: T3, PCLO, Q9Y6V0
Assay: holdup assay
Set-up: key: below the threshold = too weak to quantify, mostly under pKd 3.1 to 4
Conditions: plain residues with an end cap or a label only (N-terminal biotin on a linker: ado-ado)

pKd	Binder
below the threshold	B1
below the threshold	B2
below the threshold	B3

Biological target: DLG4_2, P78352
Assay: holdup assay
Set-up: key: below the threshold = too weak to quantify, mostly under pKd 3.1 to 4
Conditions: plain residues with an end cap or a label only (N-terminal biotin on a linker: ado-ado)

Chain of DLG4_2, P78352 (P78352 155-259): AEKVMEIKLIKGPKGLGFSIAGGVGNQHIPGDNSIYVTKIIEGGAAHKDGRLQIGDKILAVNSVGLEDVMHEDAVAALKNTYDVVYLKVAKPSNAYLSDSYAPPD

pKd	Binder
4.76	B1
4.13	B2
4.02	B3

Biological target: MAST2, Q6P0Q8
Assay: holdup assay
Set-up: key: below the threshold = too weak to quantify, mostly under pKd 3.1 to 4
Conditions: plain residues with an end cap or a label only (N-terminal biotin on a linker: ado-ado)

Chain of MAST2, Q6P0Q8 (Q6P0Q8 1099-1202): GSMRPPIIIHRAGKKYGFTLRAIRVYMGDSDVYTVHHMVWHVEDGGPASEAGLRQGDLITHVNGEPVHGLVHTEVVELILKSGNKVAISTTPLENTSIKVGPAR

pKd	Binder
5.52	B1
4.89	B2
5.76	B3

Biological target: AHNAK1, Q09666
Assay: holdup assay
Set-up: key: below the threshold = too weak to quantify, mostly under pKd 3.1 to 4
Conditions: plain residues with an end cap or a label only (N-terminal biotin on a linker: ado-ado)

Chain of AHNAK1, Q09666 (Q09666 4-100): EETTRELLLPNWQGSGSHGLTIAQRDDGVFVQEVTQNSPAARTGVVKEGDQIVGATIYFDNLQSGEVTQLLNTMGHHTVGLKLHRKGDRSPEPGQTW

pKd	Binder
below the threshold	B1
below the threshold	B2
below the threshold	B3

Biological target: T4, MPP7, Q5T2T1
Assay: holdup assay
Set-up: key: below the threshold = too weak to quantify, mostly under pKd 3.1 to 4
Conditions: plain residues with an end cap or a label only (N-terminal biotin on a linker: ado-ado)

pKd	Binder
below the threshold	B1
below the threshold	B2
below the threshold	B3

Biological target: MAGI1_1, Q96QZ7
Assay: holdup assay
Set-up: key: below the threshold = too weak to quantify, mostly under pKd 3.1 to 4
Conditions: plain residues with an end cap or a label only (N-terminal biotin on a linker: ado-ado)

Chain of MAGI1_1, Q96QZ7 (Q96QZ7 1-106): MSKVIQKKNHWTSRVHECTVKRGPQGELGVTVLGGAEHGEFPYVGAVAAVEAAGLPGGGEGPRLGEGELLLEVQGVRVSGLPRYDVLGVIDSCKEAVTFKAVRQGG

pKd	Binder
3.59	B1
3.59	B2
3.51	B3

Biological target: T5, GRIP1_5, Q9Y3R0
Assay: holdup assay
Set-up: key: below the threshold = too weak to quantify, mostly under pKd 3.1 to 4
Conditions: plain residues with an end cap or a label only (N-terminal biotin on a linker: ado-ado)

pKd	Binder
below the threshold	B1
below the threshold	B2
below the threshold	B3

Biological target: SCRIB_2, Q14160
Assay: holdup assay
Set-up: key: below the threshold = too weak to quantify, mostly under pKd 3.1 to 4
Conditions: plain residues with an end cap or a label only (N-terminal biotin on a linker: ado-ado)

Chain of SCRIB_2, Q14160 (Q14160 857-960): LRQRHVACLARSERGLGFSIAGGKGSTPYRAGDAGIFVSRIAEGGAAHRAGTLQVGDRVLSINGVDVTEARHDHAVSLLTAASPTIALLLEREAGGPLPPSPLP

pKd	Binder
4.41	B1
below the threshold	B2
3.88	B3

Biological target: GRIP2_3, Q9C0E4
Assay: holdup assay
Set-up: key: below the threshold = too weak to quantify, mostly under pKd 3.1 to 4
Conditions: plain residues with an end cap or a label only (N-terminal biotin on a linker: ado-ado)

Chain of GRIP2_3, Q9C0E4 (Q9C0E4 238-339): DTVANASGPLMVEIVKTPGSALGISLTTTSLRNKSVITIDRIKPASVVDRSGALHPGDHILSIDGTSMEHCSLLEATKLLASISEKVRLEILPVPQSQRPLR

pKd	Binder
below the threshold	B1
below the threshold	B2
below the threshold	B3

Biological target: GIPC2, Q8TF65
Assay: holdup assay
Set-up: key: below the threshold = too weak to quantify, mostly under pKd 3.1 to 4
Conditions: plain residues with an end cap or a label only (N-terminal biotin on a linker: ado-ado)

Chain of GIPC2, Q8TF65 (Q8TF65 112-203): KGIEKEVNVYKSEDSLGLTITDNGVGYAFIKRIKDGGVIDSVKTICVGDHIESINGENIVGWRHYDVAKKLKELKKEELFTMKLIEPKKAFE

pKd	Binder
3.68	B1
below the threshold	B2
below the threshold	B3

Biological target: T6, GRIP1_7, Q9Y3R0
Assay: holdup assay
Set-up: key: below the threshold = too weak to quantify, mostly under pKd 3.1 to 4
Conditions: plain residues with an end cap or a label only (N-terminal biotin on a linker: ado-ado)

pKd	Binder
below the threshold	B1
below the threshold	B2
below the threshold	B3

Biological target: T7, PDZRN3_1, Q9UPQ7
Assay: holdup assay
Set-up: key: below the threshold = too weak to quantify, mostly under pKd 3.1 to 4
Conditions: plain residues with an end cap or a label only (N-terminal biotin on a linker: ado-ado)

pKd	Binder
4.4	B1
below the threshold	B2
below the threshold	B3

Biological target: Inadl_4, Q8NI35
Assay: holdup assay
Set-up: key: below the threshold = too weak to quantify, mostly under pKd 3.1 to 4
Conditions: plain residues with an end cap or a label only (N-terminal biotin on a linker: ado-ado)

Chain of Inadl_4, Q8NI35 (Q8NI35 547-651): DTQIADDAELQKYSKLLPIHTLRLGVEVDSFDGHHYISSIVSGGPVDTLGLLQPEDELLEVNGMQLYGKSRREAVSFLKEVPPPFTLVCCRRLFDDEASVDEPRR

pKd	Binder
below the threshold	B1
below the threshold	B2
below the threshold	B3

Biological target: FRMPD2_1, Q68DX3
Assay: holdup assay
Set-up: key: below the threshold = too weak to quantify, mostly under pKd 3.1 to 4
Conditions: plain residues with an end cap or a label only (N-terminal biotin on a linker: ado-ado)

Chain of FRMPD2_1, Q68DX3 (Q68DX3 770-861): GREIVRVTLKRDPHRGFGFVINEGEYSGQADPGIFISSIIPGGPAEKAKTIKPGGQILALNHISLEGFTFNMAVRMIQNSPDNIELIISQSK

pKd	Binder
below the threshold	B1
4.1	B2
below the threshold	B3

Biological target: T8, PTPN13_1, Q12923
Assay: holdup assay
Set-up: key: below the threshold = too weak to quantify, mostly under pKd 3.1 to 4
Conditions: plain residues with an end cap or a label only (N-terminal biotin on a linker: ado-ado)

pKd	Binder
below the threshold	B1
below the threshold	B2
below the threshold	B3

Biological target: MAGI2_5, Q86UL8
Assay: holdup assay
Set-up: key: below the threshold = too weak to quantify, mostly under pKd 3.1 to 4
Conditions: plain residues with an end cap or a label only (N-terminal biotin on a linker: ado-ado)

Chain of MAGI2_5, Q86UL8 (Q86UL8 915-1017): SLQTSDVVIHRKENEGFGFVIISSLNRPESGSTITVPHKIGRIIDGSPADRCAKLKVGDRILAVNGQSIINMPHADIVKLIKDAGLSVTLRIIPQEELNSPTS

pKd	Binder
3.96	B1
4.26	B2
4.76	B3

Biological target: MAGI2_3, Q86UL8
Assay: holdup assay
Set-up: key: below the threshold = too weak to quantify, mostly under pKd 3.1 to 4
Conditions: plain residues with an end cap or a label only (N-terminal biotin on a linker: ado-ado)

Chain of MAGI2_3, Q86UL8 (Q86UL8 600-682): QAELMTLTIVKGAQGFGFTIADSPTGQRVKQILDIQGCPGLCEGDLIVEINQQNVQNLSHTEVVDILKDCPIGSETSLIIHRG

pKd	Binder
3.96	B1
3.81	B2
3.56	B3

Biological target: T9, LIN7A, O14910
Assay: holdup assay
Set-up: key: below the threshold = too weak to quantify, mostly under pKd 3.1 to 4
Conditions: plain residues with an end cap or a label only (N-terminal biotin on a linker: ado-ado)

pKd	Binder
3.51	B1
below the threshold	B2
below the threshold	B3

Biological target: HTRA1, Q92743
Assay: holdup assay
Set-up: key: below the threshold = too weak to quantify, mostly under pKd 3.1 to 4
Conditions: plain residues with an end cap or a label only (N-terminal biotin on a linker: ado-ado)

Chain of HTRA1, Q92743 (Q92743 360-477): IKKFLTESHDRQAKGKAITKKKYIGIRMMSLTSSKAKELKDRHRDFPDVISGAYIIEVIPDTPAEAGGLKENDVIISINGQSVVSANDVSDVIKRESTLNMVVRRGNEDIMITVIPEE

pKd	Binder
below the threshold	B1
4.47	B2
5.79	B3

Biological target: GRID2IP_1, A4D2P6
Assay: holdup assay
Set-up: key: below the threshold = too weak to quantify, mostly under pKd 3.1 to 4
Conditions: plain residues with an end cap or a label only (N-terminal biotin on a linker: ado-ado)

Chain of GRID2IP_1, A4D2P6 (A4D2P6 1-87): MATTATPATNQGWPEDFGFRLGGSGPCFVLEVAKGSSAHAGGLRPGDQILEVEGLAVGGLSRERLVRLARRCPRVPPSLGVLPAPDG

pKd	Binder
below the threshold	B1
below the threshold	B2
below the threshold	B3

Biological target: T10, SYNJ2BP, P57105
Assay: holdup assay
Set-up: key: below the threshold = too weak to quantify, mostly under pKd 3.1 to 4
Conditions: plain residues with an end cap or a label only (N-terminal biotin on a linker: ado-ado)

pKd	Binder
4.75	B1
3.75	B2
4.24	B3
